In article PMC5470993 (2017):

Target: Rac1 (Homo sapiens, UniProt P63000)
Experiment: GST pull-down

Kd: 243 nM
B1: PAK1 RBD (protein)
chain: KKEKERPEISLPSDFEHTIHVGFDAVTGEFTGMPEQWARLLQTSNITKSEQKKNPQAVLDVLEFYNSKKTSNSQKYMSFTDKSA
